Reference: paper PMC4122225 (2014)
Values belong to the binder of their own block, whether it stands above or below them.

Experiments:
Experiment in all cases: ELISA
[1] = biological target: Apolipoprotein E3 (LipoE3) (Homo sapiens, UniProt P02649)
[2] = biological target: Apolipoprotein E4 (LipoE4) (Homo sapiens, UniProt P02649)
[3] = biological target: Apolipoprotein E2 (LipoE2) (Homo sapiens, UniProt P02649)
Chain of Apolipoprotein E2 (LipoE2) (P02649 19-317): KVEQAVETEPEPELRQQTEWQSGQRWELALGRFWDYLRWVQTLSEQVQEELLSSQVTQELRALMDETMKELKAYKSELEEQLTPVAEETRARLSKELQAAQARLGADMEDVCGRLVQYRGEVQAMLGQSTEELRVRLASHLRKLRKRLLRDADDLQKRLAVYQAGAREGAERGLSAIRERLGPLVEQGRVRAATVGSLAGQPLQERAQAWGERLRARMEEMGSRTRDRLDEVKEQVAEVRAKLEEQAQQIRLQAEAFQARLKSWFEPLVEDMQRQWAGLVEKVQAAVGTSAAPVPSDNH

Chain of Apolipoprotein E3 (LipoE3) (P02649 19-317): as above
Chain of Apolipoprotein E4 (LipoE4) (P02649 19-317): as above

Kd [1]: 59.6 nM
B1: Haptoglobin (phenotype 1-1) (protein)
chain 1: VDSGNDVTDIADDGCPKPPEIAHGYVEHSVRYQCKNYYKLRTEGDGVYTLNDKKQWINKAVGDKLPECEADDGCPKPPEIAHGYVEHSVRYQCKNYYKLRTEGDGVYTLNNEKQWINKAVGDKLPECEAVCGKPKNPANPVQ
chain 2: ILGGHLDAKGSFPWQAKMVSHHNLTTGATLINEQWLLTTAKNLFLNHSENATAKDIAPTLTLYVGKKQLVEIEKVVLHPNYSQVDIGLIKLKQKVSVNERVMPICLPSKDYAEVGRVGYVSGWGRNANFKFTDHLKYVMLPVADQDQCIRHYEGSTVPEKKTPKSPVGVQPILNEHTFCAGMSKYQEDTCYGDAGSAFAVHDLEEDTWYATGILSFDKSCAVAEYGVYVKVTSIQDWVQKTIAEN
modifications: ApoE3 isoform, lecithin liposome-associated

Kd [2]: 54.9 nM
B2: Haptoglobin (phenotype 1-1) (protein)
chain 1: B1 chain 1
chain 2: B1 chain 2
modifications: ApoE4 isoform, lecithin liposome-associated

Kd [3]: 58.2 nM
B3: Haptoglobin (phenotype 1-1) (protein)
chain 1: B1 chain 1
chain 2: B1 chain 2
modifications: ApoE2 isoform, lecithin liposome-associated
